Among the data in publication PMC2783173 are % decrease in BiFC relative to WT values, retold here.

What all share (test): split reporter
The target in assay [1] is HIV-1 Nef (SF2) D123V, YFP BiFC fusions (HIV-1 (SF2 allele)).
The target of assay [2] is HIV-1 Nef (SF2) R105E, YFP BiFC fusions (HIV-1 (SF2 allele)).
In assay [3] the target is HIV-1 Nef (SF2) F121A, YFP BiFC fusions (HIV-1 (SF2 allele)).
Assay [4] deals with HIV-1 Nef (SF2) L112D, YFP BiFC fusions (HIV-1 (SF2 allele)).
The target of assay [5] is HIV-1 Nef (SF2) Y115D, YFP BiFC fusions (HIV-1 (SF2 allele)).
Assay [6] addresses HIV-1 Nef (SF2) L112A, YFP BiFC fusions (HIV-1 (SF2 allele)).
For assay [7], the target named is HIV-1 Nef (SF2) I109D/L112D/Y115D/F121D, YFP BiFC fusions (HIV-1 (SF2 allele)).
For assay [8], the target named is HIV-1 Nef (SF2) D123A, YFP BiFC fusions (HIV-1 (SF2 allele)).
Assay [9] concerns the target HIV-1 Nef (SF2) 2PA (SH3-binding motif mutant), YFP BiFC fusions (HIV-1 (SF2 allele)) (UniProt P03407).
The target of assay [10] is HIV-1 Nef (SF2) R105E/R106E, YFP BiFC fusions (HIV-1 (SF2 allele)).
In assay [11] the target is HIV-1 Nef (SF2) D123N, YFP BiFC fusions (HIV-1 (SF2 allele)).
The target of assay [12] is HIV-1 Nef (SF2) L112D/Y115D, YFP BiFC fusions (HIV-1 (SF2 allele)).

In assay [1], “HIV-1 Nef (SF2) D123V, YFP BiFC fusions (natural protein)” gave a % decrease in BiFC relative to WT of 52.9%.

For the substance “HIV-1 Nef (SF2) R105E, YFP BiFC fusions (natural protein)”, the % decrease in BiFC relative to WT in assay [2] stood at 49.9%.

In [3], “HIV-1 Nef (SF2) F121A, YFP BiFC fusions (natural protein)” displayed a % decrease in BiFC relative to WT of 33%.

Take “HIV-1 Nef (SF2) L112D, YFP BiFC fusions (natural protein)”: the % decrease in BiFC relative to WT in assay [4] was 47.5%.

“HIV-1 Nef (SF2) Y115D, YFP BiFC fusions (natural protein)” showed a % decrease in BiFC relative to WT in assay [5] of 59.1%.

In [6], “HIV-1 Nef (SF2) L112A, YFP BiFC fusions (natural protein)” registered a % decrease in BiFC relative to WT of 52.8%.

“HIV-1 Nef (SF2) I109D/L112D/Y115D/F121D, YFP BiFC fusions (natural protein)” yielded a % decrease in BiFC relative to WT in assay [7] of 99.9%.

In the case of “HIV-1 Nef (SF2) D123A, YFP BiFC fusions (natural protein)”, the % decrease in BiFC relative to WT in assay [8] was 69.6%.

“HIV-1 Nef (SF2) 2PA (SH3-binding motif mutant), YFP BiFC fusions (from UniProt P03407) (natural protein)” came in with a % decrease in BiFC relative to WT in [9] of 0%.

In turn, “HIV-1 Nef (SF2) R105E/R106E, YFP BiFC fusions (natural protein)” displayed a % decrease in BiFC relative to WT in assay [10] of 71.1%.

Turning to “HIV-1 Nef (SF2) D123N, YFP BiFC fusions (natural protein)”, in assay [11], the % decrease in BiFC relative to WT is 97.1%.

In [12], “HIV-1 Nef (SF2) L112D/Y115D, YFP BiFC fusions (natural protein)” registered a % decrease in BiFC relative to WT of 86.7%.
